The test system of one data set is PC-3 xenografts. The data set can be described thus: PC-3 human prostate cancer xenograft model. It counts as in vivo, NOD/SCID mice. The method, then: Procedures involving animals and their care were conducted according to the guidelines of the Academia Sinica Institutional Animal Care and Utilization Committee in compliance with national and international laws and policies. Non-obese diabetic-severe combined immunodeficiency (NOD/SCID) mice were purchased from the National Laboratory Animal Center (Taiwan). The human prostate cancer xenograft tumor model was developed by subcutaneously injecting 2×10^6 PC-3 cells into the dorsal flank of a six-week old male mouse. Animals were monitored daily for general health, and body weights were measured twice weekly. Tumor size was measured with slide calipers and calculated as length×width^2×0.52. […] An antibody dose of 20 mg/kg was injected twice a week for four weeks. For combination therapy, docetaxel (ScinoPharm Taiwan) was also intravenously administered at a dose of 5 mg/kg once a week for three weeks. At the end of the experiment, tumor tissue and visceral organs were removed and fixed for histological analysis.
For tumor blood vessel studies, samples were fixed in OCT. Frozen blocks were cut into 50 μm sections, and frozen tumor tissue sections were fixed with 1% paraformaldehyde, permeabilized with 0.1% TRITON™-X 100, blocked with normal horse serum (Vector), and then incubated for 1 hour at room temperature (RT) with a 1:100 dilution of the primary antibody (rat anti-mouse CD31 (PECAM-1); BD Bioscience). Subsequently, the tissue sections were incubated with Alexa 549-conjugated goat anti-rat antibody (Invitrogen) at room temperature for 1 hour. Nuclei were stained with DAPI, and sections were then mounted with fluorescent mounting solution. Immunofluorescent images were acquired using a Zeiss Axiovert 200M microscope. Positive areas of CD31 endothelial cells were quantified by pixel area counting and normalized with DAPI staining using ImageJ software under low power magnification.
The frozen tumor tissue sections were fixed with 1% paratbrmaldehyde and permeabilized with 0.1% TRITON™-X 100, before being incubated with terminal deoxynucleotidyltransferase-mediated dUTP nick end labeling reaction mixture (Roche Diagnostics) at 37° C. for 1 hour. After washing three times with PBS, the slides were incubated with FITC-anti-DIG antibody (1:2000) and DAPI (1:500). Slides were mounted with mounting solution and visualized under a fluorescent microscope. Slides were independently examined by three individuals. Areas with TUNEL-positive cells were quantified by pixel area counting, and normalized to DAPI staining using ImageJ software.
In general terms: In xenograft studies the graft and the host belong to different species.

In a further data set the target is T1, VEGFR2-Fc (Homo sapiens, UniProt P35968).
T1 construct: purchased R&D Systems
T1 sequence (P35968 with tags, fused parts or gaps limits assumed): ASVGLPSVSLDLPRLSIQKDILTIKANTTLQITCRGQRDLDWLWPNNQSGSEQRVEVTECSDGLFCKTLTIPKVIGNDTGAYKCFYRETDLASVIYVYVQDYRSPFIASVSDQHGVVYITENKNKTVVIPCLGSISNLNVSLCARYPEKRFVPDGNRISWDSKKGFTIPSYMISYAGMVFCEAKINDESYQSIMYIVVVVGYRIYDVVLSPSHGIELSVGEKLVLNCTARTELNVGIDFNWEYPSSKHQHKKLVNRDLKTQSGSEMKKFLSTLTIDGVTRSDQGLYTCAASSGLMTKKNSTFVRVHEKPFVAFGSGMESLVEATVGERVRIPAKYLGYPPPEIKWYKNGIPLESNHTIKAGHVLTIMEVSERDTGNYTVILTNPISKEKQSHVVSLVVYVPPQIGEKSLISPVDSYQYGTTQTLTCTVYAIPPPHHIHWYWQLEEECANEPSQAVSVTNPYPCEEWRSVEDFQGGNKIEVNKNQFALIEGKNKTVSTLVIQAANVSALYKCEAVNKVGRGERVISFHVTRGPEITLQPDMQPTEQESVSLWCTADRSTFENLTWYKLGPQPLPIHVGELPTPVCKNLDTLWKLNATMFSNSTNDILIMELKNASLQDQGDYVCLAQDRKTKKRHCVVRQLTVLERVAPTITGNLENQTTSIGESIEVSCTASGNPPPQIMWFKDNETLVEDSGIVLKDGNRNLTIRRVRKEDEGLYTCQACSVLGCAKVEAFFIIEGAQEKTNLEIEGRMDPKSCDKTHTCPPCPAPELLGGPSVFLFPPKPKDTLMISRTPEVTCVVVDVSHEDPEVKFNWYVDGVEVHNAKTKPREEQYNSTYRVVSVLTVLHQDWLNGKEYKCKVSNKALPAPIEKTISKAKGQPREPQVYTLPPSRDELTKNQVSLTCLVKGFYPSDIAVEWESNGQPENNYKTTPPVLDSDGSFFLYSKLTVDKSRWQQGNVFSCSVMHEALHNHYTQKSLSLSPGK
The data set can be described thus: Screening of anti-VEGFR2 phage clones by ELISA. It counts as binding. To be noted: 1×10^9 cfu phage titer. The method, then:
(§1) The selected phages were further examined by ELISA screening. The 96-well plates were coated with 1 μg/ml of VEGFR2-Fc, Met-Fc (R&D), or BSA (Sigma) protein in 0.1 M sodium bicarbonate overnight at 4° C. After blocking with 1% BSA in PBS (w/v) for 2 hr at room temperature, 70-randomly selected phage clones were added to the plates at a 1:2 dilution in 1% BSA, and incubated for 1 hr at room temperature. Following washes with PBST, the plates were incubated with a 1:2000 dilution of horseradish peroxidase (HRP)-conjugated mouse anti-M13 phage antibody (GE) for 1 hr. After washing with PBST, the colorimetric reaction was developed with the peroxidase substrate ortho-phenylenediamine (OPD; Sigma) plus H2O2 for 15 min, and then terminated by the addition of 3 N HCl. The absorbance at 490 nm was determined using a microplate reader (SpectraMax, Molecular Devices). Plasmid DNA of positive clones were isolated and sequenced using the pCANTAB5 sequencing primer set.

Another data set has as its system Met-Fc. The experiment in a line: Phage clone ELISA on control protein. It counts as binding. As for the experimental part: as §1
The next data set has as its target T2, VEGFR2 (Homo sapiens, UniProt P35968).
T2 construct: purchased R&D Systems
The data set can be described thus: Competitive VEGF binding assay (ELISA): VEGF-A binding to immobilized VEGFR2. As to conditions: scFv; for competitive ability against VEGF-A binding to VEGFR2: plate-based competition binding assay; for IC50: 3 nM human VEGF-A, immobilized VEGFR2-Fc, read-out: half-maximal inhibitory concentration (IC50) of the interaction of VEGF-A with VEGFR2. As for the experimental part:
Various concentrations of anti-VEGFR2 scFvs were mixed with 3 nM human VEGF-A (Peprotech), and added to 96-well plates coated with 1 μg/ml of VEGFR2-Fc and pre-blocked in 1% BSA. After incubation for 1 hr at RT and washes with PBST, the bound VEGF molecules were detected using anti-VEGF mAb (GeneTex) and HRP-labeled goat anti-mouse IgG. The reaction was developed with a mixture of OPD and H2O2, and subsequently terminated with 3 N HCl. The absorbance was determined using a microplate reader at 490 nm.
To determine whether the anti-VEGFR2 scFvs can block VEGF-A binding to VEGFR2, we performed a plate-based competition binding assay in which increasing concentrations of scFvs competed with VEGF-A for binding to the immobilized VEGFR2.
We analyzed the affinity of both human antibodies to VEGFR2 using a BIACORE T100™. […] We performed solid-phase competitive assays to quantitatively evaluate the disruption of VEGF-A/VEGFR2 binding by individual antibodies.
(In general: ELISA stands for enzyme-linked immunosorbent assay.)

A further data set has as its target murine VEGFR2 protein (Mus musculus, UniProt P35918, DEL223-227). The experiment in a line: Cross-reactivity with murine VEGFR2. It counts as binding.
Another data set relates to VEGFR2 signaling pathway. The experiment in a line: Western blot of VEGF-A-induced phosphorylation in HUVECs. As to conditions: scFv. It counts as cell-based, human. The source says: Western blots were pertbrmed using standard protocols, as previously described. The primary antibodies were purchased from Cell Signaling Technology and used at a 1,000-fold dilution for protein detection; the antibodies used are as follows: anti-VEGFR2 (clone 55B11), anti-phospho-VEGFR2 (Tyr1175; clone 19A10), anti-FAK, anti-phospho-FAK (Tyr397; cloneD20B1), anti-p42/44 MAPK, anti-phospho-p42/44 MAPK (Thr202/Tyr204; cloneD13.14.4E), anti-Akt, and anti-phospho-Akt (Ser473).
A general note: In western blotting, separated proteins are transferred to a membrane and probed.

T2 sequence (P35968 with tags, fused parts or gaps limits assumed): as above
Sequence of murine VEGFR2 protein (P35918 with tags, fused parts or gaps DEL223-227): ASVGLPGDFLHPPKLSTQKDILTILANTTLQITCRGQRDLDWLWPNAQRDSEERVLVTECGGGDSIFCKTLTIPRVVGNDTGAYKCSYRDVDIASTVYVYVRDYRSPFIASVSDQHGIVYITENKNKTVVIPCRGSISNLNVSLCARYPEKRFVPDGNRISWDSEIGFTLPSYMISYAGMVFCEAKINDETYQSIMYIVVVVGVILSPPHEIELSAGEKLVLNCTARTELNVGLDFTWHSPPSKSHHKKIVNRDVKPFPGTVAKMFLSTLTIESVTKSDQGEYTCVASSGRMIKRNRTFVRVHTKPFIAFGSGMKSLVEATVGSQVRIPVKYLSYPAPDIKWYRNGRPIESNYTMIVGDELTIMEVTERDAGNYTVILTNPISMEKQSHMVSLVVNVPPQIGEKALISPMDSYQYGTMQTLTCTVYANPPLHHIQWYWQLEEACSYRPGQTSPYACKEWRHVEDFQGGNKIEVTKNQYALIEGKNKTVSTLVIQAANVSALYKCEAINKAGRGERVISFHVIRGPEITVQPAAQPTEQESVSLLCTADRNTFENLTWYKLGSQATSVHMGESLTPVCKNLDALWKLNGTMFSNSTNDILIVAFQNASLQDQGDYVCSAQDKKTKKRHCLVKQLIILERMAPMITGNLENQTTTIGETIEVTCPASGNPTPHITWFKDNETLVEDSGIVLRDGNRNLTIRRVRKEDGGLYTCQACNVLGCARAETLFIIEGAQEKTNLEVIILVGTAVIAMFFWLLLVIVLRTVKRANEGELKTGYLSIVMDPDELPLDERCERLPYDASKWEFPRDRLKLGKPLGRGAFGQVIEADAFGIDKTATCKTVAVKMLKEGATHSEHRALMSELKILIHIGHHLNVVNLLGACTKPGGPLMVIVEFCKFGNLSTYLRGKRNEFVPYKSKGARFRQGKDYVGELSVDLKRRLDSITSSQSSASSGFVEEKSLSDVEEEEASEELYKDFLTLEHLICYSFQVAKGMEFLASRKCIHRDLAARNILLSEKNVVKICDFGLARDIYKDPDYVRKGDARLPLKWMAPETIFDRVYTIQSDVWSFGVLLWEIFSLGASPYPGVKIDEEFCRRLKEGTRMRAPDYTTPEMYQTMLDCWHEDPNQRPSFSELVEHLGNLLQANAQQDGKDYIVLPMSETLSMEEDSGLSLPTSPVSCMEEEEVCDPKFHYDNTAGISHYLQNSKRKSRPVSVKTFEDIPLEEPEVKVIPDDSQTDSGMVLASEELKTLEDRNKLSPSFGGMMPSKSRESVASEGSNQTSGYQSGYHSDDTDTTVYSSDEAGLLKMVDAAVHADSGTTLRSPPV

Take `CC(=O)O[C@@]12CO[C@@H]1C[C@H](O)[C@@]1(C)C(=O)[C@H](O)C3=C(C)[C@@H](OC(=O)[C@H](O)[C@@H](NC(=O)OC(C)(C)C)c4ccccc4)C[C@@](O)([C@@H](OC(=O)c4ccccc4)[C@H]21)C3(C)C` [docetaxel, reference compound]: the tumor growth reduction in the data set on PC-3 xenografts (by day 38, antibody 20 mg/kg i.v. twice a week, docetaxel 5 mg/kg i.v. once a week) came out at 70%. Further, in the data set with PC-3 xenografts (treatment period), the “loss of body weight” value is recorded as “about 20%”.

B1: R2PC29: phage-displayed human scFv clone binding VEGFR2; VH CDR1-3 SEQ ID NO: 16-18, VL CDR1/CDR3 SEQ ID NO: 19, 20 (antibody, V domains shown)
VH: QVQLQQSGAEMKKSGSSVKVSCKASGGNFISKGISWVRQAPGQGLEWMGGIIPLFGTGNYAQKFQGRVTITADESTTTVYLQLTSLTPEDTAMYFCATADVDYSDSLEAFDMWGQGTMVTVSS
VL: DIVMTQSPSSLSASVGDRVTITCRASQSINNYLNWYQQKPGKAPNLLIYGASSLQSGVPSRFRGSGSGTDFTLTISSLQPEDFATYYCQQSYSTPLFGQGTKLEIK
As to B1, the “binding of phage clones to VEGFR2-Fc” value with VEGFR2-Fc is reported as “bind highly”. Further, the “binding of phage clones to c-Met-Fc control protein” value with Met-Fc is “not”.

B2: R2S29: soluble anti-VEGFR2 scFv protein generated from phage clone R2PC29 (antibody, V domains shown)
VH: QVQLQQSGAEMKKSGSSVKVSCKASGGNFISKGISWVRQAPGQGLEWMGGIIPLFGTGNYAQKFQGRVTITADESTTTVYLQLTSLTPEDTAMYFCATADVDYSDSLEAFDMWGQGTMVTVSS
VL: DIVMTQSPSSLSASVGDRVTITCRASQSINNYLNWYQQKPGKAPNLLIYGASSLQSGVPSRFRGSGSGTDFTLTISSLQPEDFATYYCQQSYSTPLFGQGTKLEIK
Take B2: the “competitive ability against VEGF-A binding to VEGFR2” value with VEGFR2 is listed as “comparatively weak competitive ability”.

B3: R2PC28: phage-displayed human scFv clone binding VEGFR2; VH CDR1-3 SEQ ID NO: 11-13, VL CDR1/CDR3 SEQ ID NO: 14, 15 (antibody, V domains shown)
VH: EVQLVESGGALVQPGGSLRLSCVGSEFTFSHYNLHWVRQAPGKGLEWLAVISDDGRNKYYGDSVKGRFTISRDNSKNTLYLQMNGLRAEDTAVYYCARVPTVWRGGVYDIWGQGTMVTVSS
VL: EIVLTQSPATLSLSPGERATLSCRASQSVGSYLAWYQQRPGQPPRLLIYDASNRATGVAARFSGSGSGTDFTLTIDSLEAEDAATYYCHQSSSLPRTFGQGTKLEIK
On to B3, for which the “binding of phage clones to VEGFR2-Fc” value in the data set with VEGFR2-Fc was “bind highly”. Also, the “binding of phage clones to c-Met-Fc control protein” value in the data set with Met-Fc is “not”.

B4: R2S28: soluble anti-VEGFR2 scFv protein generated from phage clone R2PC28 (antibody, V domains shown)
VH: EVQLVESGGALVQPGGSLRLSCVGSEFTFSHYNLHWVRQAPGKGLEWLAVISDDGRNKYYGDSVKGRFTISRDNSKNTLYLQMNGLRAEDTAVYYCARVPTVWRGGVYDIWGQGTMVTVSS
VL: EIVLTQSPATLSLSPGERATLSCRASQSVGSYLAWYQQRPGQPPRLLIYDASNRATGVAARFSGSGSGTDFTLTIDSLEAEDAATYYCHQSSSLPRTFGQGTKLEIK
On to B4, for which, in the data set with VEGFR2, the “competitive ability against VEGF-A binding to VEGFR2” value is on record as “comparatively weak competitive ability”.

B5: R2PC8: phage-displayed human scFv clone binding VEGFR2; VH CDR1-3 SEQ ID NO: 1-3, VL CDR1/CDR3 SEQ ID NO: 4, 5 (antibody, V domains shown)
VH: QVQLVQSGGGLVKPGGSLRLSCAASGFTFSSYSMSWVRQAPGKGLEWVSSISSSSSYIYYADSVKGRFTISRDNAKNSLYLQMNSLRAEDTAVYYCARSTDAFDIWGQGTMVTVSS
VL: DIVMTQSPSSLSASVGDRVTITCRASQRISNYLNWYQHKSGEDPKLLIYAASSLQSGVPSRFSGSGSGTDFTLTISSLQPEDFATYYCQQYDRYPPTFGQGTKLEIK
With B5, in the data set with VEGFR2-Fc, the “binding of phage clones to VEGFR2-Fc” value was “bind highly”. Also, the “binding of phage clones to c-Met-Fc control protein” value in the data set on Met-Fc is on record as “not”.

B6: R2S8: soluble anti-VEGFR2 scFv protein generated from phage clone R2PC8 (antibody, V domains shown)
VH: QVQLVQSGGGLVKPGGSLRLSCAASGFTFSSYSMSWVRQAPGKGLEWVSSISSSSSYIYYADSVKGRFTISRDNAKNSLYLQMNSLRAEDTAVYYCARSTDAFDIWGQGTMVTVSS
VL: DIVMTQSPSSLSASVGDRVTITCRASQRISNYLNWYQHKSGEDPKLLIYAASSLQSGVPSRFSGSGSGTDFTLTISSLQPEDFATYYCQQYDRYPPTFGQGTKLEIK
With B6, in the data set with murine VEGFR2 protein, the “cross-reaction / binding to murine VEGFR2” value is recorded as “did not cross-react”. In the data set with VEGFR2 signaling pathway, the “tyrosine phosphorylation of VEGFR2 by VEGF-A” value is on record as “inhibited”. For the same molecule, the IC50 in the data set with VEGFR2 is 7.03 nM.

B7: R2S12: soluble anti-VEGFR2 scFv protein from phage clone R2PC12; VH SEQ ID NO: 76, VL SEQ ID NO: 77 (antibody, V domains shown)
VH: QVNLRESGGGLVKPGGSLRLSCAASGFTFGSYTMNWVRQAPGKGLEWVASITSGSSYIFYTDSVKGRFTISRDNSRSSLFLQMNSLRAEDTAIYYCARGSASAFDIWGQGTMVTVSS
VL: DIQMTQSPSSLSASVGDRVTITCKASDDIINYLNWYQQKPGEAPKLLIYDASILETGVPSRFSGSGSGTDFTFTISSLQPEDIATYYCQQYDILPLTFGGGTKLEIK
modifications: scFv linker; VH region of R2S12 or R2S12-AF; VL region of R2S12
Regarding B7, the “cross-reaction / binding to murine VEGFR2” value in the data set with murine VEGFR2 protein is listed as “did not cross-react”. For the same molecule, the “tyrosine phosphorylation of VEGFR2 by VEGF-A” value in the data set with VEGFR2 signaling pathway is recorded as “strongest inhibition activity”. Also, the IC50 with VEGFR2 is 3.26 nM.

B8: R2PC45: phage-displayed human scFv clone binding VEGFR2; VH CDR1-3 SEQ ID NO: 21-23, VL CDR1/CDR3 SEQ ID NO: 24, 25 (antibody, V domains shown)
VH: QVNLRESGGGVVQPGRSLRLSCAASGFTFSSYAMHWVRQAPGKGLEWVAVISYDGSNKYYADSVKGRFTISRDNSKNTLYLQMNSLRAEDTAVYYCAREQDYGSSSGDAFDIWGQGTMVTVSS
VL: DIQMTQSPSSLSASVGDRVTITCRASQRISSYLNWYQQKPGKAPKLLIYDASNLQSGVPSRFSGSGSGTDFTLTINGLQPDDFAIYFCHQSYSAPPTFGQGTKVEIK
On to B8, for which, in the data set with VEGFR2-Fc, the “binding of phage clones to VEGFR2-Fc” value is recorded as “bind highly”. Besides, in the data set with Met-Fc, the “binding of phage clones to c-Met-Fc control protein” value is on record as “not”.

The values are drawn from US10196447B2, “Anti-vascular endothelial growth factor receptor 2 (VEGFR2) antibody and methods of use thereof for detecting VEGFR2 and for inhibiting tumor growth, tumor angiogenesis and/or inducing cancer cell cytotoxicity” (Academia Sinica, priority 2015, dated 2019).
